Measurements published in US20240141039A1 (AGENUS, published 2024).

T1: full-length isoform 2 ECD of cynomolgus monkey CD96 (His-tagged) (cynomolgus monkey)
T1 construct: also called His-tagged isoform 2 of cynomolgus monkey CD96; cyno CD96 extracellular domain isoform 2
T1 chain: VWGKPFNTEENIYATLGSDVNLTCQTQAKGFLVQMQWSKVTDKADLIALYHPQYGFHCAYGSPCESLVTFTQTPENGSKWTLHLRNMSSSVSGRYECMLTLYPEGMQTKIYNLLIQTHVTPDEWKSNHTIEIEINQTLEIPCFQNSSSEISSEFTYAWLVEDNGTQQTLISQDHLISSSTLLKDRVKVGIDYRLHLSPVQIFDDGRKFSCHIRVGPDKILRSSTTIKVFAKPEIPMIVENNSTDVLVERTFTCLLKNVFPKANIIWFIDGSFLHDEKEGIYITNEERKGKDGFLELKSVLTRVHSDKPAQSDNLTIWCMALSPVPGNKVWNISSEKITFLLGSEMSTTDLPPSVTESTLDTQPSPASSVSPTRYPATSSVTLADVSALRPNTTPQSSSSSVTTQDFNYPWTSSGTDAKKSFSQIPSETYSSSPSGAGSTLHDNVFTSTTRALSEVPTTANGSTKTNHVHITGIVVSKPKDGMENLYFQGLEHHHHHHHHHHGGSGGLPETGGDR

T2: wild type full-length human TIGIT expressed on cells (human, UniProt Q495A1 22-244)
T2 construct: whole, on cells; also called human TIGIT-CHO; human TIGIT CHO cells
T2 sequence (looked up): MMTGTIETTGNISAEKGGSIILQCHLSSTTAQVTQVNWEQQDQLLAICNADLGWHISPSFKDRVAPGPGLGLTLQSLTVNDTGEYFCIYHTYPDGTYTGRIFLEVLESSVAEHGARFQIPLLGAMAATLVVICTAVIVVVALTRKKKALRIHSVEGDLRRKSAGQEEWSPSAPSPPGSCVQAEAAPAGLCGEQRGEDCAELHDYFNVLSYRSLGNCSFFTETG


Tests used:
[1] = target: T1, full-length isoform 2 ECD of cynomolgus …; test: SPR Biacore T200, Protein A capture, 1:1 model, experiment #1
Method: Briefly, surface plasmon resonance experiments were performed using a Biacore T200 instrument, and the association rate (kₐ), dissociation rate (kd), and dissociation constant (KD) were calculated from each experiment using a 1:1 binding model with Biacore T200 Evaluation Software.
Multispecific molecules were captured using a 30-sec injection at a flow rate of 10 μl/min to reach about 350 resonance units (RUs). […] The sensor chip was regenerated between cycles with two 30-sec injections of 10 mM glycine, pH 1.5. Sensorgrams were evaluated and fit to a simple Langmuir 1:1 interaction model using the global data analysis option of BIAevaluation 3.0 software. Data quality was verified by visually inspecting deviations and curve fitting, and by evaluating the parameters of Rₘₐₓ, Chi2, and Tc.

[2] = target: T3, full-length human FcγRIIIa variant F/F expressed on CHO cells (human, UniProt P08637 17-254); test: flow cytometry, human FcγRIIIa (F/F) CHO cells, 1 experiment
T3 construct: whole, on cells; also called human FcγRIIIa-CHO (variant F/F); human FcγRIIIa (F/F) CHO cells
Method: (§1) For the antibody binding assay, a frozen aliquot of human FcγRIIIa-CHO cells (variant V/V or variant F/F) was thawed at 37° C. and then transferred to a tube containing DPBS supplemented with 0.5% Bovine Serum Albumin and 0.05% Sodium Azide (FACS Buffer). Cells were centrifuged at 300 g for five minutes. The supernatant was discarded, and cells resuspended in FACS buffer were seeded in a 96-well U-bottom tissue culture plate at a density of 2×10⁵ cells per well in 50 μL. In a separate microplate, a 2× concentrated intermediate stock of each antibody was prepared. Antibodies were serially diluted 1-to-4 in FACS buffer. A total of 11 working dilutions ranging from 60 μg/mL to 0.000057 μg/mL were prepared. Fifty microlitres of each dilution were then transferred to the microplate containing human FcγRIIIa-CHO (variant V/V or variant F/F) cells. The cells were then incubated for 45 minutes at 4° C. […] After a 30-minute incubation on ice, the cells were washed twice with cold FACS Buffer, and the cells were analyzed by flow cytometry (BD LSR Fortessa Flow Cytometer). The data were analyzed using the FlowJo software by sequentially gating the FSC-A vs. SSC-A, and SSC-H vs. SSC-A. Mean fluorescence intensity (MFI) values for PE were calculated, and the data were plotted by GraphPad Prism software.

[3] = target: T4, full-length human FcγRIIIa variant V/V expressed on CHO cells (human, UniProt P08637 17-254); test: flow cytometry, human FcγRIIIa (V/V) CHO cells, 2 experiments
T4 construct: whole, on cells; also called human FcγRIIIa-CHO (variant V/V); human FcγRIIIa (V/V) CHO cells
Method: as §1

[4] = target: T2, wild type full-length human TIGIT …; test: flow cytometry, human TIGIT CHO cells, geomean of 2 experiments
Method: (§2) The ability of anti-TIGIT antibodies to bind to wild type human TIGIT expressed on the surface of CHO cells was assessed. Briefly, CHO cells were transfected with a vector encoding wild type human TIGIT (human TIGIT-CHO), and clones stably expressing TIGIT were selected.
as §1, with “TIGIT-CHO” for “FcγRIIIa-CHO”, “cells” for “cells (variant V/V or variant F/F)”, “2×10⁵” left out, “prepared.” for “prepared. Fifty microlitres of each dilution were then transferred to the microplate containing human FcγRIIIa-CHO (variant V/V or variant F/F) cells. The cells were then incubated for 45 minutes at 4° C.”

[5] = target: T5, wild type full-length cynomolgus monkey TIGIT expressed on CHO cells (cynomolgus monkey, UniProt A0A7N9I9V4 89-312); test: flow cytometry, cynomolgus TIGIT CHO cells, geomean of 2 experiments
T5 construct: whole, on cells; also called cynomolgus TIGIT-CHO cells

[6] = target: T2, wild type full-length human TIGIT …; test: flow cytometry on CHO cells expressing human TIGIT, PE anti-human IgG Fc detection
Method: as §2
as §1, with “TIGIT-CHO” for “FcγRIIIa-CHO”, “cells” for “cells (variant V/V or variant F/F)”, “2×10⁵” left out, “prepared.” for “prepared. Fifty microlitres of each dilution were then transferred to the microplate containing human FcγRIIIa-CHO (variant V/V or variant F/F) cells. The cells were then incubated for 45 minutes at 4° C.”

T3 sequence (P08637 17-254, change not shown): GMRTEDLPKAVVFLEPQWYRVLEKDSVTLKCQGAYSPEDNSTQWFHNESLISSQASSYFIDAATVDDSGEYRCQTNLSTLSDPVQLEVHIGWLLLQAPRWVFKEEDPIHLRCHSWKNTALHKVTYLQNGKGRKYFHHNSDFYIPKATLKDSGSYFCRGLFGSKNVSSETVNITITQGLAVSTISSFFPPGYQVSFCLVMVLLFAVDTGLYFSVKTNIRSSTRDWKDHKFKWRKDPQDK
T5 sequence (A0A7N9I9V4 entry or part of it): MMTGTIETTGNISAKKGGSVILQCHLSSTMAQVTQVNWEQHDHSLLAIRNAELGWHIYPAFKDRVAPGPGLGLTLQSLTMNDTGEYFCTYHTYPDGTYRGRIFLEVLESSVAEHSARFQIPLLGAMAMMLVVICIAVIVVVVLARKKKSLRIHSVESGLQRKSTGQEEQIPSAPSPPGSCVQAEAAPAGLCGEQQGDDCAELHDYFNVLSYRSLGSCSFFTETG
T4 sequence (P08637 other isoform, or with tags, fused parts or gaps mutant limits assumed): as the sequence (P08637 17-254, change not shown) above, with F160V counted along it

| Kd [1] [nM] | koff [1] [s⁻¹] | kon [1] [M⁻¹ s⁻¹] | EC50 [2] [ng/mL] | EC50 [3] [ng/mL] | EC50 [4] [ng/mL] | EC50 [5] [ng/mL] | EC50 (read off the curve) [6] [ng/mL] | Binder |
| --- | --- | --- | --- | --- | --- | --- | --- | --- |
| 48 | 0.00379 | 79000 | – | – | – | – | – | anti-TIGIT×CD96 multispecific molecule BA123 (bispecific antibody, human IgG1, kappa, lambda, copies: 1 + 1 + 1 + 1) heavy 1: QVQLVQSGAEVKKPGASVKVSCKASGYTFTSYGISWVRQAPGQGLEWMGWISAYNANTNYAQKLQGRVTMTTDTSTSTAYMELRSLRSDDTAVYYCARSAGVLGGMDVWGRGTLVTVSSASTKGPSVFPLAPSSKSTSGGTAALGCLVKDYFPEPVTVSWNSGALTSGVHTFPAVLQSSGLYSLSSVVTVPSSSLGTQTYICNVNHKPSNTKVDKRVEPKSCDKTHTCPPCPAPELLGGPDVFLFPPKPKDTLMISRTPEVTCVVVDVSHEDPEVKFNWYVDGVEVHNAKTKPREEQYNSTYRVVSVLTVLHQDWLNGKEYKCKVSNKALPAPIEKTISKAKGQPREPQVYTLPPSREEMTKNQVSLSCAVKGFYPSDIAVEWESNGQPENNYKTTPPVLDSDGSFFLVSKLTVDKSRWQQGNVFSCSVMHEALHNHYTQKSLSLSPG light 1: not shown heavy 2: EVQLVQSGAEVKKPGSSVKVSCKASGYTFASYGISWVRQAPGQGLEWMGGITPFFNRVDVAEKFQGRVTITADKSTSTAYIELSSLRSEDTAVYYCARDLRRGGVGDAFDIWGRGTLVTVSSASTKGPSVFPLAPSSKSTSGGTAALGCLVKDYFPEPVTVSWNSGALTSGVHTFPAVLQSSGLYSLSSVVTVPSSSLGTQTYICNVNHKPSNTKVDKRVEPKSCDKTHTCPPCPAPELLGGPDVFLFPPKPKDTLMISRTPEVTCVVVDVSHEDPEVKFNWYVDGVEVHNAKTKPREEQYNSTYRVVSVLTVLHQDWLNGKEYKCKVSNKALPLPEEKTISKAKGQPREPQVYTLPPSREEMTKNQVSLWCLVKGFYPSDIAVEWESNGQPENNYKTTPPVLDSDGSFFLYSKLTVDKSRWQQGNVFSCSVMHEALHNHYTQKSLSLSPG light 2: QSALTQPRSVSGSPGQSVTISCTGTSPDVGSHAYRSWYQQHPGKAPKLMIYEVSYRPSGVSNRFSGSKSGNTASLTISGLQAEDEADYYCSSYPPSSATVFGAGTKLTVLGQPKAAPSVTLFPPSSEELQANKATLVCLISDFYPGAVTVAWKADSSPVKAGVETTTPSKQSNNKYAASSYLSLTPEQWKSHRSYSCQVTHEGSTVEKTVAPTEC |
| – | – | – | 2.62 | 45.5 | 8.2 | 53.4 | ~8 | anti-TIGIT monospecific antibody BA148 (antibody, human IgG1, lambda, IgG1; also called anti-TIGIT IgG1 antibody BA148) heavy: EVQLVQSGAEVKKPGSSVKVSCKASGYTFASYGISWVRQAPGQGLEWMGGITPFFNRVDVAEKFQGRVTITADKSTSTAYIELSSLRSEDTAVYYCARDLRRGGVGDAFDIWGRGTLVTVSSASTKGPSVFPLAPSSKSTSGGTAALGCLVKDYFPEPVTVSWNSGALTSGVHTFPAVLQSSGLYSLSSVVTVPSSSLGTQTYICNVNHKPSNTKVDKRVEPKSCDKTHTCPPCPAPELLGGPDVFLFPPKPKDTLMISRTPEVTCVVVDVSHEDPEVKFNWYVDGVEVHNAKTKPREEQYNSTYRVVSVLTVLHQDWLNGKEYKCKVSNKALPLPEEKTISKAKGQPREPQVYTLPPSREEMTKNQVSLTCLVKGFYPSDIAVEWESNGQPENNYKTTPPVLDSDGSFFLYSKLTVDKSRWQQGNVFSCSVMHEALHNHYTQKSLSLSPGK light: QSALTQPRSVSGSPGQSVTISCTGTSPDVGSHAYRSWYQQHPGKAPKLMIYEVSYRPSGVSNRFSGSKSGNTASLTISGLQAEDEADYYCSSYPPSSATVFGAGTKLTVLGQPKAAPSVTLFPPSSEELQANKATLVCLISDFYPGAVTVAWKADSSPVKAGVETTTPSKQSNNKYAASSYLSLTPEQWKSHRSYSCQVTHEGSTVEKTVAPTEC |
